US20110206625A1

Biological target: recombinant human BMP6 (human) (UniProt P22004)
Assay: cell-based or functional assay

UniProt P22004, sequence (P22004 382-513 limits assumed): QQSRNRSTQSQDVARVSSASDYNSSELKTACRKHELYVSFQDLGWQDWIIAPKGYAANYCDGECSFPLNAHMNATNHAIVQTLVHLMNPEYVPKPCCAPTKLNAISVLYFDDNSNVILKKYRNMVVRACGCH

## recombinant human Sclerostin (from UniProt Q9BQB4 24-213)
  BMP6-induced melanin content in human epidermal melanocytes (72 h): 15%
